Data reported in patent US20150057236A1 (CORNELL UNIVERSITY, published 2015).
*1 amine or outer side, *2 acyl side, *3 side chain or, on linkers, in order; H or OH if unused. Where no end group is shown, it is not given here. The star is where a group is joined. thiosuccinyl = thiosuccinyl group on a lysine side chain (thiosuccinyl lysine); AMC = Cc1cc(=O)oc2cc(N*)ccc12; Suc = O=C(CCC(=O)[*:2])[*:1]

What was measured:
Assay in all cases: cell-based or functional assay
human Sirt5 [1] = target: T1, human Sirt5 (human, UniProt Q9NXA8 1-310, limits assumed)
T1 sequence (Q9NXA8 whole entry): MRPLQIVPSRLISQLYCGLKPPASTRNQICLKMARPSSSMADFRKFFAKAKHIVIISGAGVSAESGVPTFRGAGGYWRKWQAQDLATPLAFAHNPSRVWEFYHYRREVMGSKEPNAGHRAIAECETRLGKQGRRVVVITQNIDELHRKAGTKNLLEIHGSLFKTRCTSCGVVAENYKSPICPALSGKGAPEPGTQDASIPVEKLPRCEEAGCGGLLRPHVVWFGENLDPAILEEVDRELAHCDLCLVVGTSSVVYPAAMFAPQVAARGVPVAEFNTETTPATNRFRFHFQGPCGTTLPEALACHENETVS

human Sirt3 = target: T2, human Sirt3 (human, UniProt Q9NTG7 102-399, limits assumed)
T2 sequence (looked up): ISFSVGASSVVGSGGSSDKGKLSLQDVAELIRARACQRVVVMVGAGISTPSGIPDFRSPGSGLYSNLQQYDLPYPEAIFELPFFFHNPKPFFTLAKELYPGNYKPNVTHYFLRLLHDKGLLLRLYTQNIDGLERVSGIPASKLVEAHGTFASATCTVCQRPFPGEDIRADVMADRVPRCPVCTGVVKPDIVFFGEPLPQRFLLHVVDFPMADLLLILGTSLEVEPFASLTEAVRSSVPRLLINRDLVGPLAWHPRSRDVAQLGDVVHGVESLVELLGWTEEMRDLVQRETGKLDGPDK

human Sirt1 = target: T3, human Sirt1 (human, UniProt Q96EB6 1-747, limits assumed)
T3 sequence (looked up): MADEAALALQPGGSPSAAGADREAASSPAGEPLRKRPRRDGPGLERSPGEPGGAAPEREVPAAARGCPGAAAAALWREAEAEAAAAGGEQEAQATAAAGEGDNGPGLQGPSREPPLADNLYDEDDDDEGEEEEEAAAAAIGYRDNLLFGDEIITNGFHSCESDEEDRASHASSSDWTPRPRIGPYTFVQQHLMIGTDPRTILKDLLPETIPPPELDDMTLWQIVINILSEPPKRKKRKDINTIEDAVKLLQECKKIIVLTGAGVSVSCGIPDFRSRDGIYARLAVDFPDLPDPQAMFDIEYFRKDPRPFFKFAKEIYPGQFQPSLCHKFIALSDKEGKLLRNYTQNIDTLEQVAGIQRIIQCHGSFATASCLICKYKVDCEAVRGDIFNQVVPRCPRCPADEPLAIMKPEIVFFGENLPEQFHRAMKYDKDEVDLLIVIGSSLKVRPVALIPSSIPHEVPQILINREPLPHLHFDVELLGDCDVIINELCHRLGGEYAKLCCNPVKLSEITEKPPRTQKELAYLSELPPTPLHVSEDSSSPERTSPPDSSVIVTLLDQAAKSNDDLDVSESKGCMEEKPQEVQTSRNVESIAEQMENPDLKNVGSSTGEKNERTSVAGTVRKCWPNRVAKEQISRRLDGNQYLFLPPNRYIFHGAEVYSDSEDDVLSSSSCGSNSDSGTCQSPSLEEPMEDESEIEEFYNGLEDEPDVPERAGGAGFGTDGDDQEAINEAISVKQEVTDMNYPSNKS

human Sirt5 [2] = target: T1, human Sirt5; remark: listed apart in the source
human Sirt2 = target: T4, human Sirt2 (human, UniProt Q8IXJ6 1-389, limits assumed)
T4 sequence (looked up): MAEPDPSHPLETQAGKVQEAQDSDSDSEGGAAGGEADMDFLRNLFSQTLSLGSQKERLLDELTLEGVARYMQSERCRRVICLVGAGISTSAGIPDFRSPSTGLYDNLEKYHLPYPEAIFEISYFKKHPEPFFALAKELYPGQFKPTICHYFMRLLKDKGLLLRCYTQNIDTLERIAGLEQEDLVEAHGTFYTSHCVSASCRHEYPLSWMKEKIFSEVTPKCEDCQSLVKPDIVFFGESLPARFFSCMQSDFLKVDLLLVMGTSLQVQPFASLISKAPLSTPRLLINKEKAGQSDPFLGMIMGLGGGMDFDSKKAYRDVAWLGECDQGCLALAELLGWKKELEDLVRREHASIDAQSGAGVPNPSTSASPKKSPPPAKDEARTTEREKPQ

Binder: ISGASEK(Suc)-{AMC} [ISGASE(SuK)-AMC peptide]
- fluorescence increase against control without Sirt5, 1 µM Sirt5 (human Sirt5 [1]): 11 fold
- fluorescence increase against control without Sirt5, 2 µM Sirt5 (human Sirt5 [1]): 20 fold
- fluorescence increase against control without Sirt5, 5 µM Sirt5 (human Sirt5 [1]): 26 fold

Binder: KQTARK(Suc)-{AMC} [KQTAR(SuK)-AMC peptide]
- fluorescence increase against control without Sirt5 (fluorogenic assay) (human Sirt5 [1]): ~3 fold

Binder: KQTARK(thiosuccinyl)STGGKA [H3K9 thiosuccinyl (H3K9 TSu) peptide, KQTAR(TSuK)STGGKA]
- IC50 (µM), inhibition of sirtuin deacylase activity (human Sirt3): > 100 µM
- IC50 (µM), inhibition of sirtuin deacylase activity (human Sirt1): > 100 µM
- IC50 (µM), inhibition of sirtuin deacylase activity (human Sirt5 [2]): 5 µM
- IC50 (µM), inhibition of sirtuin deacylase activity (human Sirt2): > 100 µM
